The record followed here is PMC10786891, “Massively parallel profiling of RNA-targeting CRISPR-Cas13d”.

Numbering of substitutions follows the chain as printed. In names and notes the source's numbering stands.

First the molecules themselves.
B1: target 1 insG 3' of 18,insG 3' of 1 (mixed)
RNA 1: CACCCGUGCAAAAAUGCAGGGGUCUAAAACUGAGCGGAUAACCUCUCUAUGG
RNA 2: GGGAAUGGAUCCACAUCUACGAAUUCGUACCAUAGGAGAGGUUAUCCGCUCAGCCGAGAUCGGAAGAGCACACGU
B2: target 1 insG 3' of 22,insA 3' of 2 (mixed)
RNA 1: B1 RNA 1
RNA 2: B1 RNA 2 with C31G, A32C, U33A, A34U, G35A, G53A
B3: target 1 insG 3' of 19,insG 3' of 7 (mixed)
RNA 1: B1 RNA 1
RNA 2: B1 RNA 2 with A34G, G35A, C47G, G48C, C49G, U50C, C51U, A52C, G53A
B4: target 1 U8C,U10A (mixed)
RNA 1: B1 RNA 1
RNA 2: GGGAAUGGAUCCACAUCUACGAAUUCGUACCAUAGAGAGGUAACCCGCUCACCGAGAUCGGAAGAGCACACGU
B5: target 1 A1C,U10C (mixed)
RNA 1: B1 RNA 1
RNA 2: B4 RNA 2 with A42C, C44U, A51C
B6: target 1 A9C,C22U (mixed)
RNA 1: B1 RNA 1
RNA 2: B4 RNA 2 with C30U, A42U, A43C, C44U
B7: target 1 insA 3' of 15,insU 3' of 12 (mixed)
RNA 1: B1 RNA 1
RNA 2: GGGAAUGGAUCCACAUCUACGAAUUCGUACCAUAGAGAAGGUUUAUCCGCUCACCGAGAUCGGAAGAGCACACGU
B8: target 1 insU 3' of 6,insG 3' of 4 (mixed)
RNA 1: B1 RNA 1
RNA 2: B7 RNA 2 with A39G, G41U, U43A, A45C, U46C, C47U, C48G, G49C, C50G
B9: target 1 complement block 3-12 (mixed)
RNA 1: B1 RNA 1
RNA 2: B4 RNA 2 with G40C, U41A, A43U, C44A, C45G, C46G, G47C, C48G, U49A
B10: target 1 G5A,G17U (mixed)
RNA 1: B1 RNA 1
RNA 2: B4 RNA 2 with G35U, A42U, C44U, G47A
B11: target 1 insA 3' of 7,insA 3' of 3 (mixed)
RNA 1: B1 RNA 1
RNA 2: B7 RNA 2 with A39G, G41U, U43A, A45C, U46A, C48G, G49C, C50U, U51A
B12: target 1 insG 3' of 22,insC 3' of 1 (mixed)
RNA 1: B1 RNA 1
RNA 2: B1 RNA 2 with C31G, A32C, U33A, A34U, G35A, G53C
B13: target 1 insU 3' of 16,insU 3' of 16 (mixed)
RNA 1: B1 RNA 1
RNA 2: B7 RNA 2 with G37U, A38U, A39G, G40A, U42G
B14: target 1 insC 3' of 20,insG 3' of 8 (mixed)
RNA 1: B1 RNA 1
RNA 2: B7 RNA 2 with U33C, A34U, G35A, A36G, G37A, A38G, U44A, A45U, U46G
B15: target 1 insU 3' of 15,insA 3' of 13 (mixed)
RNA 1: B1 RNA 1
RNA 2: B7 RNA 2 with A38U, G41A, U42G
B16: target 1 insG 3' of 11,insG 3' of 10 (mixed)
RNA 1: B1 RNA 1
RNA 2: B7 RNA 2 with A39G, G41U, U42G, U44G
B17: target 1 insG 3' of 16,insU 3' of 9 (mixed)
RNA 1: B1 RNA 1
RNA 2: B7 RNA 2 with A38G, U44A, A45U
B18: target 1 insC 3' of 22,insU 3' of 1 (mixed)
RNA 1: B1 RNA 1
RNA 2: B1 RNA 2 with A32C, U33A, A34U, G35A, G53U
B19: target 1 insG 3' of 6,insG 3' of 3 (mixed)
RNA 1: B1 RNA 1
RNA 2: GGGAAUGGAUCCACAUCUACGAAUUCGUACCAUAGAGAGGUUAUCCGGCUGCACCGAGAUCGGAAGAGCACACGU
B20: target 1 insU 3' of 9,insA 3' of 2 (mixed)
RNA 1: B1 RNA 1
RNA 2: B19 RNA 2 with C45U, G47C, G51C, C52A
B21: target 1 insC 3' of 22,insC 3' of 1 (mixed)
RNA 1: B1 RNA 1
RNA 2: B1 RNA 2 with A32C, U33A, A34U, G35A, G53C
B22: target 1 insC 3' of 15,insA 3' of 5 (mixed)
RNA 1: B1 RNA 1
RNA 2: B7 RNA 2 with A38C, U44A, A45U, U46C, C48G, G49A
B23: target 1 A1G,U10C (mixed)
RNA 1: B1 RNA 1
RNA 2: B4 RNA 2 with A42C, C44U, A51G
B24: target 1 insC 3' of 18,insU 3' of 7 (mixed)
RNA 1: B1 RNA 1
RNA 2: B7 RNA 2 with G35C, A36G, G37A, A38G, U44A, A45U, U46C, C47U
B25: target 1 U10C (mixed)
RNA 1: B1 RNA 1
RNA 2: B4 RNA 2 with A42C, C44U
B26: target 1 insG 3' of 9,insA 3' of 8 (mixed)
RNA 1: B1 RNA 1
RNA 2: B7 RNA 2 with A39G, G41U, U43A, U44G, A45U, U46A
B27: target 1 insC 3' of 22,insG 3' of 1 (mixed)
RNA 1: B1 RNA 1
RNA 2: B1 RNA 2 with A32C, U33A, A34U, G35A
B28: target 1 A20U,C22A (mixed)
RNA 1: B1 RNA 1
RNA 2: B4 RNA 2 with C30A, A32U, A42U, C44U
B29: target 1 insU 3' of 9,insG 3' of 1 (mixed)
RNA 1: B1 RNA 1
RNA 2: B19 RNA 2 with C45U, G47C, G51C, C52A, A53G
B30: target 1 del13,del22 (mixed)
RNA 1: B1 RNA 1
RNA 2: GGGAAUGGAUCCACAUCUACGAAUUCGUACAUAGAGAGUUAUCCGCUCACCGAGAUCGGAAGAGCACACGU
B31: target 1 insU 3' of 15,insU 3' of 2 (mixed)
RNA 1: B1 RNA 1
RNA 2: B1 RNA 2 with G36A, A37G, G38U, A52U, G53A

This data set addresses T1, EsCas13d, nuclease-dead (Eubacterium siraeum, UniProt B0MS50, R295A;H300A;R849A;H854A).
T1 sequence: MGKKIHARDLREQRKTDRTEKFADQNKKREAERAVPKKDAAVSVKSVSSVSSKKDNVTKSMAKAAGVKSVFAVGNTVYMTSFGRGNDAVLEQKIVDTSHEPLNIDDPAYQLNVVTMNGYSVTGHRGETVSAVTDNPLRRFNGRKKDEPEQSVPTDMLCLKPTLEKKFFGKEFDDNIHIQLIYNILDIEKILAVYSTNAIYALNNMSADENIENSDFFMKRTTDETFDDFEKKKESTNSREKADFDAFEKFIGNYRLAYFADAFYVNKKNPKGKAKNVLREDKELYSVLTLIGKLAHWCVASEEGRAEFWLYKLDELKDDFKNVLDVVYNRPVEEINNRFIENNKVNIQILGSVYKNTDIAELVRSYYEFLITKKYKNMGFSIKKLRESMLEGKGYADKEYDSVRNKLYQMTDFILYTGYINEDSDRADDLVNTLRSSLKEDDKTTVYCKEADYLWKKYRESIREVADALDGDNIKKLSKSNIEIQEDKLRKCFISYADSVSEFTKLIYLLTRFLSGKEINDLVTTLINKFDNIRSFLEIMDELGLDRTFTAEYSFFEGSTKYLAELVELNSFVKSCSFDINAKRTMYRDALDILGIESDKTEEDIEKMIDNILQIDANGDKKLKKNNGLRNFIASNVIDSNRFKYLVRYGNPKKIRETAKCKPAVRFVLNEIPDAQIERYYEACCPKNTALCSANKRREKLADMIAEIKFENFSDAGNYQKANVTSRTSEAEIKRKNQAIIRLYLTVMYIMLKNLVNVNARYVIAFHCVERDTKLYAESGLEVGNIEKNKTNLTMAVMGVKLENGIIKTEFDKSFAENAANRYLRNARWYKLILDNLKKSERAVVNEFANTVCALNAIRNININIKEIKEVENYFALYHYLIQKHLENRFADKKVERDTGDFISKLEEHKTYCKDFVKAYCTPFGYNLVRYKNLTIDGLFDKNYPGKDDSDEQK
The experiment in a line: crRNA (strand 1, pre-loaded); Mg2+; 40 mM Tris-HCl pH 7.5, 150 mM NaCl, 6 mM MgCl2, 1 mM DTT, 0.1% Tween-20, 0.2 mg/ml BSA; 25 C; 10 min per concentration, then washed. The following applies: tags: His6-TwinStrep-SUMO cleaved; N-terminal SNAP kept (SNAP-Surface 488); label: 3' end held by stalled T7 RNA polymerase.
Take B1: binding was characterised by a dissociation constant (Kd) of 55 ± 10 nM.
For B2, the Kd was determined as 28.8 ± 2.3 nM.
As for B3, the figure is 46 ± 4 nM.
For B4 the value was 11 ± 0.5 nM; for B5, 22.2 ± 2.9 nM.
As for B6, the figure is 54 ± 12 nM; as for B7, 4.9 ± 0.4 nM.
B8 returned a Kd of 7.21 ± 0.28 nM.
As for B9, the figure is 14.4 ± 0.5 nM; as for B10, about 100 nM; as for B11, 5.5 ± 0.4 nM.
B12 had a Kd of 25.6 ± 1.6 nM.
As for B13, the figure is 38 ± 5 nM; as for B14, 8.6 ± 0.4 nM.
For B15 the value was 10.2 ± 0.7 nM.
In turn, B16 displayed a Kd of 30 ± 4 nM.
As for B17, the figure is 28.9 ± 2.2 nM.
As for B18, the figure is 20.6 ± 1.9 nM; as for B19, 7.3 ± 0.5 nM; as for B20, 19.8 ± 1.9 nM.
As for B21, the figure is 17.2 ± 1 nM; as for B22, 6.6 ± 0.5 nM.
The molecule B23 came in with a Kd of 17.3 ± 0.9 nM.
Turning to B24, binding was put at a Kd of 67 ± 5 nM.
As for B25, the figure is 18 ± 1.1 nM.
As for B26, the figure is 19.6 ± 1 nM; as for B27, 15.3 ± 1.2 nM.
For the molecule B28, the Kd was 23.9 ± 2.8 nM.
B29 showed a Kd of 18.9 ± 2.5 nM.
For B30 the value was 30.9 ± 3 nM; for B31, 11.2 ± 0.6 nM.
